Assay results from patent US20090169520A1, “Compounds, Pharmaceutical Compositions and Therapeutic Methods of Preventing and Treating Diseases and Disorders Associated With Amyloid Fibril Formation” (YISSUM RESEARCH DEVELOPMENT COMPANY OF THE HEBREW …, priority 2005, published 2009).
Marks after values point to notes of the source that are not given here.

T1: Amylin (Homo sapiens, UniProt P10997)
T1 sequence (P10997 34-70 limits assumed): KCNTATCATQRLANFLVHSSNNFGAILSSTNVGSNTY


Key:
Aβ (1-40) peptide = biological target: T2, Aβ (1-40) peptide (Homo sapiens, UniProt P05067); test: In vitro formation of amyloid fibril from Aβ (1-40), Thioflavin T fluorescence; format: biochemical; details: for Lag (fold change) / Rate (fold change): relative to No addition, asterisk = statistically significant; for effect on Aβ fibril formation (in words): 33 μM Aβ
T2 construct: synthetic Aβ (1-40) peptide; purchased Biosource, Camarillo, Calif., USA; host or cells: chemical synthesis
Text: In vitro formation of amyloidfibril—In vitro formation of amyloid fibril was in the presence of the synthetic Aβ (1-40) peptide (Biosource, Camarillo, Calif., USA) as a precursor. The reporter molecule was Thioflavin T (ThT) (Sigma, Cat. No. T-3516, Jerusalem, Israel), a benzothiazole dye that undergoes a shift in its excitation spectrum (from 340 nm to 450 nm) when interacting with β-sheet amyloid structures. The resultant ThT fluorescence signal is proportional to the amount of amyloid formed (LeVine, 1993). A stock solution of Aβ in dimethylsulfoxide (DMSO) was diluted with phosphate-buffered saline (PBS) containing 0.02% Na-Azid to a final concentration of 162 μM and 20 μl of the diluted Aβ solution was placed in each well of a 96 multiwell plate (Nunc, Roskilde, Denmark). After 20 minutes of pre-incubation at room temperature of the Aβ samples (20 μl), 80 μl of 1.25 μM ThT in 50 mM glycine buffer, pH 8.5, was added. Incubation was with shaking at 200 rpm for 6 to 8 hours at the noted temperatures. Fluorescence was measured continuously or at 30-40 minute intervals, using a Spectro-fluorometer (Tecan, Maennedorf, Switzerland). Excitation and emission wavelengths were 450 nm and 485 nm, respectively. Enhancement of the fibrillation process by the different combinations of water-dissolved cholinesterases and peptides mimicking fragments thereof, was evaluated by dissecting the time curves into two stages: the lag before the onset of the fluorescence increase (the nucleation process) and the average rate of fluorescence increase at several time points (rate of fibrils formation). Statistics analysis was performed using the Kaleidagraph Software (Reading, Pa., USA).
BChE attenuates amyloid fibrils formation—Amyloid fibril (Aβ) formation was quantified by measuring changes in ThT fluorescence. As predicted, Aβ fibrils were spontaneously formed in vitro provided that the Aβ peptide was present above 5 μM. […] Reactions were performed in the absence or presence of increasing concentrations of purified human BChE (SEQ ID NO:2; FIG. 1a), recombinant ACHE-S (SEQ ID NO:6; FIG. 1b) or both (FIGS. 1c and d). […] Due to the complex kinetics of the fibril formation process the apparent rate of change in ThT fluorescence was repeatedly determined during the exponential phase of increase in its signal (at 390±20 minutes). […] In contrast, addition of similar doses of AChE to Aβ, predictably shortened by half the lag time prior to fibril formation, again in a dose dependent manner (FIG. 1e). The lag period therefore decreased from 240 minutes to 150 minutes and the maximal rate of fibril formation increased from 0.057 to 0.116 fluorescence units (FU)/min for Aβ alone as compared to Aβ in the presence of 0.36 μM AChE-S (FIG. 1b and Table 7, hereinbelow). When increasing doses of hBChE were added to a combined mix of 33 μM Aβ with 0.36 μM AChE-S, a dose-dependent interference with the fibril formation process was observed (FIG. 1c and 2a). Thus, BChE is capable of reducing the rate of fibrillation of Aβ alone, or Aβ which is formed in the presence of AChE.

[1] = Rate of hydrolysis of AThCh/BThCh by cholinesterases; format: biochemical; details: for Rate of hydrolysis of AThCh/BThCh: average of three experiments
Description: BChE biochemistry—Serum cholinesterase catalytic activity measurements are based on a spectrophotometric method adapted to a microtiter plate assay. Butyrylthiocholine (BTCh, Sigma) hydrolysis rates are measured following 20 minutes incubation with 5×10^−5 M tetraisopropyl pyrophosphoramide (iso-OMPA, Sigma), a specific BChE inhibitor or 10^−5 M 1,5-bis(4-allyldimethylammoniumphenyl) pentan-[…] dibromide (BW284c51, Sigma, A9013), a specific AChE inhibitor. Addition of both inhibitors reduces hydrolysis to the rate of spontaneous hydrolysis measured in control reactions lacking enzyme or substrate, attesting to the specificity of these serum activities. Readings at 405 nm are repeated at 2-minute intervals for 20 minutes. Non-enzymatic hydrolysis of substrate is subtracted from the total rate of hydrolysis. Enzyme activity is calculated using the molar extinction coefficient for 5-thio-2-nitrobenzoate [13,600 M^−1×cm^−1] [Ellman, G. L. et al. (1961) Biochem. Pharmacol. 7:88-95].
In addition, BChE is soluble and thus accessible to circulating ACh. Moreover, the substrate of preference of BChE is different than that of ACHE. Thus, over the range of substrate concentrations 0.1 to 25 mM, the ratio of hydrolysis of AThCh relative to BThCh differs between the enzymes (Table 8, hereinbelow).

Amylin = biological target: T1, Amylin; test: Amylin amyloid fibril formation, Thioflavin T fluorescence; format: biochemical; details: 20 μM amylin
Description: FIG. 6 is a graph illustrating the effect of BChE in preventing amylin amyloid fibril formation. Amylin at a concentration of 20 μM was incubated with Thiofalvin T (at a concentration of 1 μM) and the formation of amyloid fibril was measured by following the Thiofalvin T fluorescence intensity [excitation (450 nm); emission (485 nm)] in the presence or absence of 0.24 μM BChE (purified from pooled human plasma). Note that the addition of BChE increases the lag time for amylin fibrillation from 30 minutes to 110 minutes.
To test the ability of BChE to prevent amylin amyloid fibril formation, the present inventors have tested the rate of amylin fibrillation (at a concentration of 20 μM) in the presence or absence of 0.24 μM BChE (purified from pooled human serum). As is shown in FIG. 6, BChE completely attenuated the formation of amylin fibrils for 100 minutes, and increased the lag time of amyloid fibril formation from 30 minutes to 110 minutes.

[2] = single C-terminal substitution (A539T); Bartels et al., 1992; cited from earlier work

T2 sequence (P05067 672-711 limits assumed): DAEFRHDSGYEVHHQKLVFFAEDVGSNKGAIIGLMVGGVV

| Molecule | Lag (fold change) (Aβ (1-40) peptide) | Rate (fold change) (Aβ (1-40) peptide) | effect on Aβ fibril formation (in words) (Aβ (1-40) peptide; ThT fluorescence) | Rate of hydrolysis of AThCh/BThCh ([1]; Substrate 0.1 mM) | Rate of hydrolysis of AThCh/BThCh ([1]; Substrate 25.0 mM) | other results |
| --- | --- | --- | --- | --- | --- | --- |
| AChE-S: recombinant human ACHE-S, prepared from an ACHE cDNA clone (Sigma) (protein, listed as Homo sapiens) MRPPQCLLHTPSLASPLLLLLLWLLGGGVGAEGREDAELLVTVRGGRLRGIRLKTPGGPVSAFLGIPFAEPPMGPRRFLPPEPKQPWSGVVDATTFQSVCYQYVDTLYPGFEGTEMWNPNRELSEDCLYLNVWTPYPRPTSPTPVLVWIYGGGFYSGASSLDVYDGRFLVQAERTVLVSMNYRVGAFGFLALPGSREAPGNVGLLDQRLALQWVQENVAAFGGDPTSVTLFGESAGAASVGMHLLSPPSRGLFHRAVLQSGAPNGPWATVGMGEARRRATQLAHLVGCPPGGTGGNDTELVACLRTRPAQVLVNHEWHVLPQESVFRFSFVPVVDGDFLSDTPEALINAGDFHGLQVLVGVVKDEGSYFLVYGAPGFSKDNESLISRAEFLAGVRVGVPQVSDLAAEAVVLHYTDWLHPEDPARLREALSDVVGDHNVVCPVAQLAGRLAAQGARVYAYVFEHRASTLSWPLWMGVPHGYEIEFIFGIPLDPSRNYTAEEKIFAQRLMRYWANFARTGDPNEPRDPKAPQWPPYTAGAQQYVSLDLRPLEVRRGLRAQACAFWNRFLPKLLSATDTLDEAERQWKAEFHRWSSYMVHWKNQFDHYSKQDRCSDL | 0.6* fold change | 2.1* fold change | – | – | – | maximal rate of fibril formation (Aβ (1-40) peptide; Aβ in the presence of 0.36 μM AChE-S (Aβ alone 0.057)): 0.116 FU/min; lag period prior to fibril formation (Aβ (1-40) peptide; Aβ in the presence of 0.36 μM AChE-S (Aβ alone 240 minutes)): 150 min |
| ASP63: synthetic AChE-S C-terminal peptide, mimics residues 548-610 in hAChE (ASP63 Synthetic peptide, synthetic AChE-S C-terminal peptide, mimics residues 548-610 in hAChE) PLEVRRGLRAQACAFWNRFLPKLLSATDTLDEAERQWKAEFHRWSSYMVHWKNQFDHYSKQDR | 1.5 fold change | 0.7 fold change | no significant effect on amyloid formation | – | – | – |
| BChE: Purified human BChE from human serum (Sigma) (protein, listed as Homo sapiens) MHSKVTIICIRFLFWFLLLCMLIGKSHTEDDIIIATKNGKVRGMNLTVFGGTVTAFLGIPYAQPPLGRLRFKKPQSLTKWSDIWNATKYANSCCQNIDQSFPGFHGSEMWNPNTDLSEDCLYLNVWIPAPKPKNATVLIWIYGGGFQTGTSSLHVYDGKFLARVERVIVVSMNYRVGALGFLALPGNPEAPGNMGLFDQQLALQWVQKNIAAFGGNPKSVTLFGESAGAASVSLHLLSPGSHSLFTRAILQSGSFNAPWAVTSLYEARNRTLNLAKLTGCSRENETEIIKCLRNKDPQEILLNEAFVVPYGTPLSVNFGPTVDGDFLTDMPDILLELGQFKKTQILVGVNKDEGTAFLVYGAPGFSKDNNSIITRKEFQEGLKIFFPGVSEFGKESILFHYTDWVDDQRPENYREALGDVVGDYNFICPALEFTKKFSEWGNNAFFYYFEHRSSKLPWPEWMGVMHGYEIEFVFGLPLERRDNYTKAEEILSRSIVKRWANFAKYGNPNETQNNSTSWPVFKSTEQKYLTLNTESTRIMTKLRAQQCRFWTSFFPKVLEMTGNIDEAEWEWKAGFHRWNNYMMDWKNQFNDYTSKKESCVGL | 1.4* fold change | 0.3* fold change | prolonged the lag and reduced the apparent rate of amyloid formation | 0.45 | 0.20 | time for which fibril formation was totally prevented (Aβ (1-40) peptide; 0.4 μM BChE added to 33 μM Aβ): over 600 minutes; concentration needed for complete attenuation of Aβ fibrillation (Aβ (1-40) peptide; attenuation for 400 minutes of incubation, ThT fluorescence): 30000 ng/mL; BChE capacity to hydrolyze ACh, fold lower than that of AChE ([1]; increased / high ACh concentrations (as in 25 mM)): 12 fold; BChE capacity of ACh hydrolysis in the circulation, fold lower than that of AChE ([1]; normal circumstances, low ACh): ca. 80 fold; time for which formation of amylin fibrils was completely attenuated (Amylin; 0.24 μM BChE): 100 min; lag time of amylin amyloid fibril formation (Amylin; 1 μM ThT, 0.24 μM BChE (without BChE 30 minutes)): 110 min |
| BChE K variant: BChE variant with a single C-terminal substitution (A539T) (protein, UniProt P06276 29-602, looked up, variant A539T) Cholinesterase: EDDIIIATKNGKVRGMNLTVFGGTVTAFLGIPYAQPPLGRLRFKKPQSLTKWSDIWNATKYANSCCQNIDQSFPGFHGSEMWNPNTDLSEDCLYLNVWIPAPKPKNATVLIWIYGGGFQTGTSSLHVYDGKFLARVERVIVVSMNYRVGALGFLALPGNPEAPGNMGLFDQQLALQWVQKNIAAFGGNPKSVTLFGESAGAASVSLHLLSPGSHSLFTRAILQSGSFNAPWAVTSLYEARNRTLNLAKLTGCSRENETEIIKCLRNKDPQEILLNEAFVVPYGTPLSVNFGPTVDGDFLTDMPDILLELGQFKKTQILVGVNKDEGTAFLVYGAPGFSKDNNSIITRKEFQEGLKIFFPGVSEFGKESILFHYTDWVDDQRPENYREALGDVVGDYNFICPALEFTKKFSEWGNNAFFYYFEHRSSKLPWPEWMGVMHGYEIEFVFGLPLERRDNYTKAEEILSRSIVKRWANFAKYGNPNETQNNSTSWPVFKSTEQKYLTLNTESTRIMTKLRAQQCRFWTSFFPKVLEMTGNIDETEWEWKAGFHRWNNYMMDWKNQFNDYTSKKESCVGL | – | – | – | – | – | reduction in hydrolytic activity [2]: 30% |
| hRBC AChE: human erythrocytes ACHE compared with serum BChE in Table 8 (protein) EGREDAELLVTVRGGRLRGIRLKTPGGPVSAFLGIPFAEPPMGPRRFLPPEPKQPWSGVVDATTFQSVCYQYVDTLYPGFEGTEMWNPNRELSEDCLYLNVWTPYPRPTSPTPVLVWIYGGGFYSGASSLDVYDGRFLVQAERTVLVSMNYRVGAFGFLALPGSREAPGNVGLLDQRLALQWVQENVAAFGGDPTSVTLFGESAGAASVGMHLLSPPSRGLFHRAVLQSGAPNGPWATVGMGEARRRATQLAHLVGCPPGGTGGNDTELVACLRTRPAQVLVNHEWHVLPQESVFRFSFVPVVDGDFLSDTPEALINAGDFHGLQVLVGVVKDEGSYFLVYGAPGFSKDNESLISRAEFLAGVRVGVPQVSDLAAEAVVLHYTDWLHPEDPARLREALSDVVGDHNVVCPVAQLAGRLAAQGARVYAYVFEHRASTLSWPLWMGVPHGYEIEFIFGIPLDPSRNYTAEEKIFAQRLMRYWANFARTGDPNEPRDPKAPQWPPYTAGAQQYVSLDLRPLEVRRGLRAQACAFWNRFLPKLLSATDTLDEAERQWKAEFHRWSSYMVHWKNQFDHYSKQDRCSDL | – | – | – | 120 | 7.2 | AThCh hydrolysis ratio difference of AChE:BChE ([1]; at 0.1 mM substrate): 245 fold; AThCh hydrolysis ratio difference of AChE:BChE ([1]; at 25 mM substrate): 36 fold |
